The labels stand for the following.
B1: Natural full-length protein C inhibitor from human blood plasma (natural protein)
chain: EMKKRVEDLHVGATVAPSSRRDFTFDLYRALASAAPSQSIFFSPVSISMSLAMLSLGAGSSTKMQILEGLGLNLQKSSEKELHRGFQQLLQELNQPRDGFQLSLGNALFTDLVVDLQDTFVSAMKTLYLADTFPTNFRDSAGAMKQINDYVAKQTKGKIVDLLKNLDSNAVVIMVNYIFFKAKWETSFNHKGTQEQDFYVTSETVVRVPMMSREDQYHYLLDRNLSCRVVGVPYQGNATALFILPSEGKMQQVENGLSEKTLRKWLKMFKKRQLELYLPKFSIEGSYQLEKVLPSLGISNVFTSHADLSGISNHSNIQVSEMVHKAVVEVDESGTRAAAATGTIFTFRSARLNSQRLVFNRPFLMFIVDNNILFLGKVNRP
modifications: N-glycans at Asn-230, Asn-243 and Asn-319
B2: Neuraminic acid free full-length protein C inhibitor from human blood plasma (natural protein)
chain: B1 chain
modifications: N-glycans at Asn-230, Asn-243 and Asn-319, sialic acids removed with neuraminidase
B3: PNGase F-treated full-length protein C inhibitor from human blood plasma (natural protein)
chain: B1 chain
modifications: N-glycans removed with PNGase F

The values that follow come from publication PMC3242763.

The target of this assay is Prostate specific antigen used in the inhibition kinetics (human) (UniProt P07288).
UniProt P07288, sequence (P07288 25-261): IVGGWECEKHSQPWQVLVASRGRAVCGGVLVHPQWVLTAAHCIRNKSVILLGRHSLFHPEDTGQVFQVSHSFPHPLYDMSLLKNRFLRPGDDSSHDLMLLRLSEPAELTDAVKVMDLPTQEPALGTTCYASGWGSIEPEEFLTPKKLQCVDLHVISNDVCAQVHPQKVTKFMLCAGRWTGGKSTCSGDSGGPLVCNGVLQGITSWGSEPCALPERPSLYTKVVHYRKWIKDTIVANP
For “Neuraminic acid free, NH2-terminally cleaved protein C inhibitor from human blood plasma (natural protein)”, the second-order rate constant for PSA inhibition (discontinuous assay of residual PSA activity on a chromogenic substrate, 350 nM PSA, 10-fold excess of PCI, 25°C, pH 7.4) came out at 5.8 M^−1s^−1.
As to “PNGase F-treated protein C inhibitor from human blood plasma lacking the six NH2-terminal amino acids (natural protein)”, the second-order rate constant for PSA inhibition (discontinuous assay of residual PSA activity on a chromogenic substrate, 350 nM PSA, 10-fold excess of PCI, 25°C, pH 7.4) amounted to 29 M^−1s^−1.
The result for “Protein C inhibitor from human blood plasma lacking the six NH2-terminal amino acids (natural protein)” reads 4.1 M^−1s^−1; that for B1, 4.3 M^−1s^−1; that for B2, 5.2 M^−1s^−1.
The same measure for B3: 4.8 M^−1s^−1.
